11 molecules from article PMC2872554 (Nature structural & molecular biology, 2010) can be followed below.

Data set [1] addresses mouse E-cadherin EC1-2 AA extension mutant (mouse). Briefly: AUC.
Data set [2] has as its target mouse E-cadherin EC1-2 E89A (mouse). The experiment in a line: AUC.
Data set [3] deals with mouse E-cadherin EC1-2 K14E (mouse). The experiment in a line: AUC.
Data set [4] has as its target mouse E-cadherin EC1-2 K14S (mouse). Briefly: AUC.
The target in data set [5] is mouse E-cadherin EC1-2 W2A (mouse). Briefly: AUC.
Data set [6] has as its target mouse E-cadherin EC1-2 Y142R (mouse). The experiment in a line: AUC.
The target in data set [7] is mouse E-cadherin EC1-2 fragment, wild type (mouse). The experiment in a line: AUC.
The target of data set [8] is mouse cadherin-6 EC1-2 M188D (mouse). The experiment in a line: AUC.
Data set [9] has as its target C-terminally biotinylated mouse cadherin-6 EC1-2 M188D (mouse). Briefly: SPR. Background: Surface plasmon resonance follows binding to a sensor surface in real time, without labels.
In data set [10] the target is mouse cadherin-6 EC1-2 W4A (mouse). The experiment in a line: AUC.
Data set [11] deals with mouse cadherin-6 EC1-2 fragment, wild type (mouse). The experiment in a line: AUC.
The data set “crystal structure” deals with the molecule itself. The experiment in a line: crystal structure.

As to “mouse E-cadherin EC1-2 AA extension mutant (domain or fragment)”, in data set [1], the Kd – broadly, the constant that tells how readily two partners part at equilibrium – amounted to 811 µM. On to “mouse E-cadherin EC1-2 E89A (domain or fragment)”, for which the Kd in [2] turned out to be 293 µM. The molecule “mouse E-cadherin EC1-2 K14E (domain or fragment)” came in with a Kd in data set [3] of 117 µM. Consider “mouse E-cadherin EC1-2 K14S (domain or fragment)”, for which, in [4], the Kd worked out at 96 µM. In [5], “mouse E-cadherin EC1-2 W2A (domain or fragment)” came in with a Kd of 916 µM. “mouse E-cadherin EC1-2 Y142R (domain or fragment)” displayed a Kd in [6] of 77.4 µM. Molecule “mouse E-cadherin EC1-2 fragment, wild type (domain or fragment)” yielded a Kd in [7] of 98.6 µM. For the molecule “mouse cadherin-6 EC1-2 M188D (domain or fragment)”, the equilibrium dissociation constant (Kd) in data set [8] was determined as 12.6 µM. The binding response in [9] is < 10 RU. Turning to “mouse cadherin-6 EC1-2 W4A (domain or fragment)”, the Kd in data set [10] stood at 321 µM.

“mouse cadherin-6 EC1-2 fragment, wild type (domain or fragment)”: the Kd in data set [11] came to 3.1 µM.

B1: mouse N-cadherin EC1-2 fragment, wild type (domain or fragment)
chain: DWVIPPINLPENSRGPFPQELVRIRSDRDKNLSLRYSVTGPGADQPPTGIFIINPISGQLSVTKPLDRELIARFHLRAHAVDINGNQVENPIDIVINVIDMNDNRPEFLHQVWNGSVPEGSKPGTYVMTVTAIDADDPNALNGMLRYRILSQAPSTPSPNMFTINNETGDIITVAAGLDREKVQQYTLIIQATDMEGNPTYGLSNTATAVITVTD
For the molecule B1, in “crystal structure”, the binding result is recorded as “binds”.
